{
  "source": "patent KR20130126543A",
  "key": {"Fc": {"molecular_target": "Fc", "assay": "mono phage ELISA; Fc coated 100 ng/well; anti-M13-HRP"}, "IL-6R-Fc 항원 (human) [1]": {"molecular_target": "IL-6R-Fc 항원 (human) (UniProt P08887)", "sequence (P08887 20-365 limits assumed)": "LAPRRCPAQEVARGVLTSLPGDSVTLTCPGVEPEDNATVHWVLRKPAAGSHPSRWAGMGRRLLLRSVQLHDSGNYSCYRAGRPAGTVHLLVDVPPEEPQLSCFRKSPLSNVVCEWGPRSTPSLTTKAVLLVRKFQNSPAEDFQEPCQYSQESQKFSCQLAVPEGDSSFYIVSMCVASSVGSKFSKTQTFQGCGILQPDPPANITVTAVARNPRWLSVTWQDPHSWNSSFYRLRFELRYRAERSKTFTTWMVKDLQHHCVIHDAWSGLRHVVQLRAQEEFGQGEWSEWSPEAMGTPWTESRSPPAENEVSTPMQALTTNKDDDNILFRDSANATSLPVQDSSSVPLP", "assay": "mono phage ELISA; ratio of the IL-6R full signal to the a-myc signal"}, "IL-6R-Fc 항원 (human) [2]": {"molecular_target": "IL-6R-Fc 항원 (human) (UniProt P08887)", "assay": "mono phage ELISA; antigen coated 100 ng/well; anti-M13-HRP"}},
  "data": [
    {"binder": "모노 파아지 클론 B10 (scFv, V domains shown) VH: QVQLVESGGGLVQPGGSLRLSCAASGFIFDDYAMFWVRQVPGKGLEWVAGINWNGNGIGYGDSVRGRFIISRDNARNSLDLQMNSLRAEDTAVYYCARPSLYGGNSEFDLWGQGTLVTVSS VL: SQLVLTQPPSVSGAPGQTVTISCTGPTIGAGYDVHWYQQLPGAAPKLLIYGNLNRPSGVPDRFSGSKSGTSASLAITDLQAEDEADYYCHTYDSSLSGSWVFGGGTKLTVL", "values": [
      {"measurement": "OD 490 nm (Fc)", "setting": "Fc", "value": 0.0406, "unit": "OD490"},
      {"measurement": "Ratio", "setting": "IL-6R-Fc 항원 (human) [1]", "value": 18.6},
      {"measurement": "OD 490 nm (IL-6R full)", "setting": "IL-6R-Fc 항원 (human) [2]", "value": 2.1, "unit": "OD490"}
    ]},
    {"binder": "모노 파아지 클론 D2 (scFv, V domains shown) VH: QVQLVESGAEVKKPGSSVKVSCKGSGDTFPNYAINWVRQAPGQGPEWMGRIIPMLGTSDYAEKFQGRVTITADKSTNTAYMGLNSLRSEDTAVYYCVKGPRYYGTDSYYLEKWGQGTMVTVSS VL: SQLVLTQPPSVSGAPGQTVTISCTGPTIGAGYDVHWYQQLPGAAPKLLIYGNLNRPSGVPDRFSGSKSGTSASLAITDLQAEDEADYYCHTYDSSLSGSWVFGGGTKLTVL", "values": [
      {"measurement": "OD 490 nm (Fc)", "setting": "Fc", "value": 0.0415, "unit": "OD490"},
      {"measurement": "Ratio", "setting": "IL-6R-Fc 항원 (human) [1]", "value": 7.71},
      {"measurement": "OD 490 nm (IL-6R full)", "setting": "IL-6R-Fc 항원 (human) [2]", "value": 2.34, "unit": "OD490"}
    ]},
    {"binder": "모노 파아지 클론 F2 (scFv, V domains shown) VH: QVQLVESGAEVKKPGASVKVSCKASGYTFTNYYMHWVRQAPGQGLEWMGIINPSGGNTGYAQKFQGRVTMTRDMSTSTAYMELSSLRSEDTAVYYCARGLPWGENGLDVWGQGTTVTVSS VL: SQLVLTQPSSVSGAPGQTVTISCTGSSSNIGAGYDVHWYQQLPGTAPKVLIYGDSDRPSGVPDRFSGSKSATSASLAITGLQAEDEADYYCQSYDSSLSAYVFGTGTKVTVL", "values": [
      {"measurement": "OD 490 nm (Fc)", "setting": "Fc", "value": 0.0405, "unit": "OD490"},
      {"measurement": "Ratio", "setting": "IL-6R-Fc 항원 (human) [1]", "value": 9.96},
      {"measurement": "OD 490 nm (IL-6R full)", "setting": "IL-6R-Fc 항원 (human) [2]", "value": 2.86, "unit": "OD490"}
    ]},
    {"binder": "모노 파아지 클론 A7 (scFv, V domains shown) VH: QMQLVESGGGLVQPGTSLRLSCAASGFKFEDYAMHWVRQAPGKGLEWVSGVSWNSGTIAYVDSVKGRFTISRDNAKNSLYLQMNSLRAEDTAVYYCARDFTYFYESSGYYAFDLWGQGTMVTVSS VL: SQLVLTQPPSVSGAPGQRVTISCTGTNSNIGAGYDVHWYQQVPGTTPKLLIYGNTNRPSGVPDRFSGSKSGTSASLAITGLQAEDGGDYYCQSFDSSLTGSVFGTGTKVTVL", "values": [
      {"measurement": "OD 490 nm (Fc)", "setting": "Fc", "value": 0.0421, "unit": "OD490"},
      {"measurement": "Ratio", "setting": "IL-6R-Fc 항원 (human) [1]", "value": 31.1},
      {"measurement": "OD 490 nm (IL-6R full)", "setting": "IL-6R-Fc 항원 (human) [2]", "value": 2.48, "unit": "OD490"}
    ]}
  ]
}
